# Data as given in the supplement of paper PMC10126150.
# ± gives the standard deviation of the averaged measurements.
# Tested on: ATP
# Assay: switch fluorescence ratio, 500 uM ATP over buffer (Cy3 cluster intensity, sum of 5 cycles each) (fold (ratio)); higher = stronger signal-on switching upon ATP binding; sequences stand for … in TCGTCGGCAGCGTCAGATGTGTATAAGAGACAGTTTTTTTTTTTTTTTTTTTTTTTTT…TC
# Settings: aptamer strand: ATP DNA aptamer (quencher-CACCTGGGGGAGTATTGCGGAGGAAGG + anchor), 100 nM annealed; ATP concentration: 500 uM
# How it was run: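 Cy3-labelled switching-strand clusters on a modified Illumina MiSeq flow-cell were annealed to 100 nM quencher-labelled ATP aptamer and imaged first in selection buffer, then after 15 min with 500 uM ATP at 22 °C. NaOH stripping and re-annealing separated each of five buffer/ATP cycles, and clusters outside 100-1000 RFU were excluded. The fluorescence ratio sums target-cycle Cy3 intensity over buffer-cycle Cy3 intensity per cluster and averages it per switch-domain sequence.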
# 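Further: ATP exposure 15 min at 22 °C before imaging.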
row,Sequence,switch fluorescence ratio
1,GTTAAACGTT,1 ± 0.014
2,GTTAATGGGT,0.98 ± 0.047
3,GTTAATTGGG,0.953 ± 0.037
4,GTTACACGGT,1.01 ± 0.021
5,GTTACTAATT,0.9943 ± 0.0081
6,GTTACTTGGT,1.01 ± 0.034
7,GTTAGAATAA,0.958 ± 0.015
8,GTTAGAGTTT,0.988 ± 0.03
9,GTTAGATTGT,0.9731 ± 0.0039
10,GTTAGCTTAG,0.99 ± 0.025
11,GTTAGGGGAG,1 ± 0.042
12,GTTAGGTACG,1 ± 0.07
13,GTTAGGTCAG,0.997 ± 0.028
14,GTTAGTAATC,1.06 ± 0.014
15,GTTAGTAGAT,1.01 ± 0.019
16,GTTAGTCTGT,0.9907 ± 0.0052
17,GTTAGTGGGC,0.971 ± 0.037
18,GTTATAAGGG,0.975 ± 0.03
19,GTTATAAGTG,0.9924 ± 0.0054
20,GTTATAATGG,0.9998 ± 0.0087
21,GTTATAGCTT,1.018 ± 0.0029
22,GTTATAGGCT,0.999 ± 0.035
23,GTTATAGTAT,0.963 ± 0.054
24,GTTATATGTG,0.982 ± 0.055
25,GTTATATTGG,0.992 ± 0.022

row,Sequence,switch fluorescence ratio
1,GTTATATTTT,1.01 ± 0.032
2,GTTATGACTC,1 ± 0.076
3,GTTATGCTAT,0.996 ± 0.017
4,GTTATTCAAT,0.9724 ± 0.0018
5,GTTATTGCGA,0.997 ± 0.019
6,GTTATTTAGA,1.03 ± 0.043
7,GTTCAAAATT,1.03 ± 0.036
8,GTTCAAGGCT,1.0016 ± 0.0002
9,GTTCACCAAT,1 ± 0.07
10,GTTCACCGGG,1.141 ± 0.0051
11,GTTCAGTAGG,0.9677 ± 0.0077
12,GTTCCCAGGA,1.09 ± 0.02
13,GTTCGAACGA,0.9856 ± 0.001
14,GTTCGAACGG,0.9963 ± 0.006
15,GTTCGACCCG,1.02 ± 0.032
16,GTTCGACTGT,1.024 ± 0.0042
17,GTTCGGATGG,1.015 ± 0.0032
18,GTTCGGCGGC,0.991 ± 0.016
19,GTTCGGGGTT,1.014 ± 0.0016
20,GTTCGTACGT,0.962 ± 0.082
21,GTTCGTTGAC,0.9862 ± 0.0067
22,GTTCGTTTTG,0.975 ± 0.035
23,GTTCTAAAAA,1.02 ± 0.042
24,GTTCTGTTGG,0.995 ± 0.023
25,GTTCTTACTT,0.973 ± 0.059

row,Sequence,switch fluorescence ratio
1,GTTCTTGGGA,1.03 ± 0.077
2,GTTCTTGGTG,1.01 ± 0.0089
3,GTTCTTTTGG,0.973 ± 0.01
4,GTTCTTTTTT,0.9511 ± 0.0071
5,GTTGAAAGGG,1.03 ± 0.027
6,GTTGAACAGT,1.01 ± 0.065
7,GTTGAAGGAC,0.996 ± 0.026
8,GTTGAAGGGG,1.029 ± 0.009
9,GTTGAATCTT,0.995 ± 0.035
10,GTTGACGCTA,1.07 ± 0.024
11,GTTGACTTAA,1.02 ± 0.013
12,GTTGATAGCG,0.991 ± 0.025
13,GTTGATAGTA,0.993 ± 0.031
14,GTTGATCTGC,1 ± 0.029
15,GTTGATTTTC,1.017 ± 0.0079
16,GTTGCAGCCT,0.981 ± 0.018
17,GTTGCAGTTG,1.07 ± 0.077
18,GTTGCATATT,0.978 ± 0.023
19,GTTGCGACGG,1 ± 0.028
20,GTTGCGGGCG,0.991 ± 0.06
21,GTTGCTATTT,1.0045 ± 0.00071
22,GTTGCTGGTG,1.025 ± 0.0071
23,GTTGCTTAGT,0.9724 ± 0.0038
24,GTTGGAAGAG,0.957 ± 0.051
25,GTTGGAAGGT,1.02 ± 0.012

row,Sequence,switch fluorescence ratio
1,GTTGGCACGA,1.04 ± 0.018
2,GTTGGCAGTG,0.978 ± 0.033
3,GTTGGCCTCT,1.02 ± 0.022
4,GTTGGCGGGG,0.976 ± 0.015
5,GTTGGCGGGT,1 ± 0.017
6,GTTGGCGTTT,1.02 ± 0.08
7,GTTGGCTTGG,1.02 ± 0.04
8,GTTGGCTTTC,1.019 ± 0.0077
9,GTTGGGATGG,0.991 ± 0.015
10,GTTGGGCCGA,1.03 ± 0.038
11,GTTGGGGAAG,0.972 ± 0.034
12,GTTGGGGCAA,1.03 ± 0.02
13,GTTGGGGCGA,1.02 ± 0.076
14,GTTGGGGGGC,0.992 ± 0.036
15,GTTGGGTAAA,0.983 ± 0.014
16,GTTGGGTAGT,0.9962 ± 0.006
17,GTTGGGTCCC,0.9857 ± 0.0069
18,GTTGGTAGGA,1.01 ± 0.033
19,GTTGGTATGT,0.994 ± 0.018
20,GTTGGTATTG,1 ± 0.021
21,GTTGGTGTAT,0.9913 ± 0.009
22,GTTGGTTACA,1.008 ± 0.0065
23,GTTGGTTCCG,0.996 ± 0.022
24,GTTGGTTCGT,1.02 ± 0.034
25,GTTGGTTGTT,0.985 ± 0.023

row,Sequence,switch fluorescence ratio
1,GTTGTAAGGG,0.998 ± 0.04
2,GTTGTAATCA,0.98 ± 0.024
3,GTTGTACGAG,0.9824 ± 0.0058
4,GTTGTACGGG,1.02 ± 0.047
5,GTTGTAGCCA,0.966 ± 0.043
6,GTTGTAGGTT,0.966 ± 0.023
7,GTTGTATACT,0.993 ± 0.076
8,GTTGTATAGA,1 ± 0.019
9,GTTGTATGTT,1.02 ± 0.039
10,GTTGTCAGGG,0.982 ± 0.012
11,GTTGTGAGGA,0.984 ± 0.036
12,GTTGTGAGGG,0.981 ± 0.018
13,GTTGTGATAG,1.01 ± 0.021
14,GTTGTGATTT,0.953 ± 0.032
15,GTTGTGCCTG,1.01 ± 0.041
16,GTTGTGCTGA,1.02 ± 0.0085
17,GTTGTGTTGT,0.979 ± 0.028
18,GTTGTGTTTT,1.01 ± 0.026
19,GTTGTTAAGG,0.996 ± 0.014
20,GTTGTTAATT,1.01 ± 0.029
21,GTTGTTGAGT,0.997 ± 0.0024
22,GTTGTTGCTC,0.987 ± 0.04
23,GTTGTTGGAA,0.963 ± 0.049
24,GTTGTTGGGT,0.983 ± 0.034
25,GTTGTTTTCG,0.987 ± 0.039

row,Sequence,switch fluorescence ratio
1,GTTGTTTTGT,0.985 ± 0.021
2,GTTGTTTTTA,0.987 ± 0.01
3,GTTGTTTTTG,1.02 ± 0.028
4,GTTGTTTTTT,0.988 ± 0.036
5,GTTTAAAAAA,1 ± 0.021
6,GTTTAAACTC,0.961 ± 0.022
7,GTTTAAACTT,0.996 ± 0.039
8,GTTTAAAGTC,0.989 ± 0.059
9,GTTTAAAGTG,1 ± 0.026
10,GTTTAAGTTT,0.996 ± 0.022
11,GTTTAATCCG,0.975 ± 0.013
12,GTTTAATGGT,0.9852 ± 0.009
13,GTTTAATTTA,1.01 ± 0.03
14,GTTTAGAGTC,1 ± 0.037
15,GTTTAGGAGG,0.989 ± 0.022
16,GTTTAGTTTG,0.992 ± 0.044
17,GTTTATAAAC,0.973 ± 0.064
18,GTTTATAATG,0.986 ± 0.02
19,GTTTATGAGC,1 ± 0.022
20,GTTTATGCAT,1 ± 0.022
21,GTTTATTAAA,1.04 ± 0.012
22,GTTTATTATA,1 ± 0.011
23,GTTTATTGGC,0.995 ± 0.019
24,GTTTATTTTT,0.997 ± 0.023
25,GTTTCAACTG,1 ± 0.12

row,Sequence,switch fluorescence ratio
1,GTTTCAGGGG,1.09 ± 0.015
2,GTTTCATATG,1.03 ± 0.047
3,GTTTCCAACT,1.01 ± 0.021
4,GTTTCCGTTT,0.973 ± 0.017
5,GTTTCGAAAA,0.9855 ± 0.0074
6,GTTTCGTAAT,1.084 ± 0.0038
7,GTTTCGTATA,0.997 ± 0.044
8,GTTTCGTGAG,0.994 ± 0.054
9,GTTTCTTAGC,0.998 ± 0.081
10,GTTTCTTTCG,1.01 ± 0.067
11,GTTTGAACGC,1.08 ± 0.018
12,GTTTGACACT,0.99 ± 0.042
13,GTTTGAGGGG,0.992 ± 0.012
14,GTTTGATAGA,0.984 ± 0.027
15,GTTTGATGTC,1 ± 0.1
16,GTTTGCAAAT,0.991 ± 0.034
17,GTTTGCAGCA,1.03 ± 0.027
18,GTTTGCAGGA,0.995 ± 0.027
19,GTTTGCGTTA,0.962 ± 0.05
20,GTTTGGACAG,1.007 ± 0.01
21,GTTTGGCGT,1.03 ± 0.045
22,GTTTGGCGTA,0.967 ± 0.015
23,GTTTGGGACG,0.9905 ± 0.0082
24,GTTTGGGGAG,0.977 ± 0.018
25,GTTTGGGGGA,0.9909 ± 0.0052

row,Sequence,switch fluorescence ratio
1,GTTTGGGGGC,1.03 ± 0.043
2,GTTTGGGTAA,0.99 ± 0.037
3,GTTTGGGTCA,1.03 ± 0.011
4,GTTTGGTATT,1.01 ± 0.04
5,GTTTGGTGTG,0.975 ± 0.033
6,GTTTGTACTC,0.997 ± 0.037
7,GTTTGTAGAG,0.993 ± 0.026
8,GTTTGTAGGC,0.9641 ± 0.0017
9,GTTTGTGGGA,0.974 ± 0.019
10,GTTTGTGTAC,1.11 ± 0.075
11,GTTTGTTGAG,0.979 ± 0.025
12,GTTTGTTGGA,0.967 ± 0.03
13,GTTTGTTGGT,0.977 ± 0.013
14,GTTTTAAAGT,1.02 ± 0.017
15,GTTTTAACGG,1.02 ± 0.029
16,GTTTTAATGG,1.01 ± 0.025
17,GTTTTACATT,1.02 ± 0.021
18,GTTTTAGAGC,1.05 ± 0.025
19,GTTTTAGATA,0.993 ± 0.031
20,GTTTTAGCTG,0.986 ± 0.059
21,GTTTTAGGGT,1 ± 0.031
22,GTTTTAGGTT,0.993 ± 0.023
23,GTTTTAGTCA,0.9989 ± 0.001
24,GTTTTAGTCC,1.01 ± 0.025
25,GTTTTATCCT,1.05 ± 0.011
